Test results published in the supplement of paper PMC12855868.

B1: library; numbered along this chain (parent)
chain: MAAAGGARLLRAASAVLGGPAGRWLHHAGSRAGSSGLLRNRGPGGSAEASRSLSVSARARSSSEDKITVHFINRDGETLTTKGKVGDSLLDVVVENNLDIDGFGACEGTLACSTCHLIFEDHIYEKLDAITDEENDMLDLAYGLTDRSRLGCQICLTKSMDNMTVRVPETVADARQSIDVGKTS

Variants of: B1
Assay: scaled log2 fold change in cell abundance, elesclomol vs control (0 = silent mean, 1 = nonsense mean) (scaled log2 ratio); higher = higher viability under elesclomol (loss of FDX1 cuproptosis function)
Conditions: glucose 10 mM
[1] = with ABC1 FDX1 KO, elesclomol 5 nM, 14 days
[2] = with HEK293T FDX1 KO, elesclomol 40 nM, 11 days
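Note: variant abundance is its share of total variant reads in each endpoint sample, from next-generation sequencing of the integrated ORF PCR-amplified out of genomic DNA.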

Variant	scaled log2 fold change [1]	scaled log2 fold change [2]
L110K	0.374	-0.159
L110D	0.955	0.687
L110A	0.303	-0.448
L110P	0.33	-0.14
L110Q	-0.0207	-0.0815
L110Y	0.609	0.0828
L110M	0.297	0.602
L110F	0.167	0.528
L110G	-1.14	-0.656
L110V	0.108	-0.578
L110C	0.439	-1.38
L110T	0.401	0.383
L110I	-0.0941	-0.421
L110E	0.704	0.547
L110S	-0.279	1.18
L110W	0.568	0.351
L110R	-0.0668	1.07
L110H	0.0622	0.156
L110N	0.111	-0.0165
F119P	0.974	0.628

Variant	scaled log2 fold change [1]	scaled log2 fold change [2]
F119W	0.0722	-0.0842
F119L	0.0116	–
F119I	0.0519	-0.0254
F119Y	0.389	0.17
F119E	1.04	1.21
F119D	1.06	1.02
F119S	1.07	0.993
F119N	0.967	0.538
F119A	0.901	0.518
F119H	0.658	-0.0181
F119K	1.05	1.21
F119Q	0.852	0.755
F119T	0.311	0.547
F119R	1.09	0.953
F119C	0.133	0.831
F119M	0.178	0.132
F119G	1.05	0.397
F119V	-0.0745	1.48
D121Q	0.169	0.0204
D121A	-0.0978	0.0802

Variant	scaled log2 fold change [1]	scaled log2 fold change [2]
D121N	-0.0427	–
D121F	0.353	–
D121G	0.178	-0.427
D121R	-0.0191	1.32
D121M	-0.556	1.79
D121P	-0.198	–
D121E	0.304	-0.162
D121I	0.217	–
D121S	-0.507	–
D121C	-0.164	-0.257
D121H	-0.394	-0.25
D121T	-0.0111	–
D121L	-0.202	-0.00537
I118E	-0.0205	-0.0505
I118F	-0.0055	-0.412
I118R	-0.527	-0.461
I118M	0.0783	0.694
I118L	0.0425	0.108
I118D	0.0488	0.0453
I118P	1.16	0.991
